Assay results: US20120316071A1

What was measured:
[1] = target: rHuman HGF R/c-MET/Fc Chimera, CF (R&D Systems Cat#358-MT/CF) (human) (UniProt P08581); assay: ECL multispot (MSD), antigen spotted, Fab in solution
[2] = target: rHuman EGF R/Fc Chimera, CF (R&D Systems Cat#344-ER) (human) (UniProt P00533); assay: as above
[3] = target: Recombinant Human DLL4 (R&D Systems Cat#1506-D4/CF) (human) (UniProt Q9NR61); assay: as above
[4] = target: rHuman P-Cadherin/Fc Chimera, CF (R&D Systems Cat#861-PC) (human) (UniProt P22223); assay: as above
[5] = target: rHuman Erythropoietin R/Fc Chimera, CF (R&D Systems Cat#963-ER) (human) (UniProt P19235); assay: as above
[6] = target: rHuman Notch-1/Fc Chimera, CF (R&D Systems Cat#3647-TK) (human) (UniProt P46531); assay: as above
[7] = target: rHuman IGF-1 sR, CF (R&D Systems Cat#391-GR) (human) (UniProt P08069); assay: as above
[8] = target: rHuman CD44/Fc Chimera, CF (R&D Systems Cat#3660-CD) (human) (UniProt P16070); assay: as above
[9] = target: rHuman Erythropoietin R/Fc Chimera, CF (R&D Systems Cat#963-ER) (human) (UniProt P19235); assay: Multispot ECL (MSD) assay, antigen spotted on plate, Fab at 421.12 nM; blank spot 639
[10] = target: rHuman Erythropoietin R/Fc Chimera, CF (R&D Systems Cat#963-ER) (human) (UniProt P19235); assay: Multispot ECL (MSD) assay, antigen spotted on plate, Fab at 42.112 nM; blank spot 323
[11] = target: rHuman EGF R/Fc Chimera, CF (R&D Systems Cat#344-ER) (human) (UniProt P00533); assay: ECL multispot (MSD) assay, antigen spotted on plate, 20 nM Fab
[12] = target: rHuman Notch-1/Fc Chimera, CF (R&D Systems Cat#3647-TK) (human) (UniProt P46531); assay: as above
[13] = target: rHuman IGF-1 sR, CF (R&D Systems Cat#391-GR) (human) (UniProt P08069); assay: as above
[14] = target: rHuman CD44/Fc Chimera, CF (R&D Systems Cat#3660-CD) (human) (UniProt P16070); assay: as above
[15] = target: rHuman HGF R/c-MET/Fc Chimera, CF (R&D Systems Cat#358-MT/CF) (human) (UniProt P08581); assay: Multispot ECL (MSD), antigen spotted on plate, Fab 0.12 nM; blank spot 264
[16] = target: rHuman ErbB2/Fc Chimera, CF (R&D Systems Cat#1129-ER) (human) (UniProt P04626); assay: as above
[17] = target: Recombinant Human DLL4 (R&D Systems Cat#1506-D4/CF) (human) (UniProt Q9NR61); assay: as above
[18] = target: rHuman Notch-1/Fc Chimera, CF (R&D Systems Cat#3647-TK) (human) (UniProt P46531); assay: as above
[19] = target: rHuman HGF R/c-MET/Fc Chimera, CF (R&D Systems Cat#358-MT/CF) (human) (UniProt P08581); assay: Multispot ECL (MSD), antigen spotted on plate, Fab 12 nM; blank spot 573
[20] = target: rHuman ErbB2/Fc Chimera, CF (R&D Systems Cat#1129-ER) (human) (UniProt P04626); assay: as above
[21] = target: Recombinant Human DLL4 (R&D Systems Cat#1506-D4/CF) (human) (UniProt Q9NR61); assay: as above
[22] = target: rHuman Notch-1/Fc Chimera, CF (R&D Systems Cat#3647-TK) (human) (UniProt P46531); assay: as above
[23] = target: rHuman HGF R/c-MET/Fc Chimera, CF (R&D Systems Cat#358-MT/CF) (human) (UniProt P08581); assay: Multispot ECL (MSD), antigen spotted on plate, Fab 1.2 nM; blank spot 227
[24] = target: rHuman ErbB2/Fc Chimera, CF (R&D Systems Cat#1129-ER) (human) (UniProt P04626); assay: as above
[25] = target: Recombinant Human DLL4 (R&D Systems Cat#1506-D4/CF) (human) (UniProt Q9NR61); assay: as above
[26] = target: rHuman Notch-1/Fc Chimera, CF (R&D Systems Cat#3647-TK) (human) (UniProt P46531); assay: as above
[27] = target: rHuman HGF R/c-MET/Fc Chimera, CF (R&D Systems Cat#358-MT/CF) (human) (UniProt P08581); assay: Multispot ECL (MSD), antigen spotted on plate, Fab 120 nM; blank spot 6749
[28] = target: rHuman ErbB2/Fc Chimera, CF (R&D Systems Cat#1129-ER) (human) (UniProt P04626); assay: as above
[29] = target: Recombinant Human DLL4 (R&D Systems Cat#1506-D4/CF) (human) (UniProt Q9NR61); assay: as above
[30] = target: rHuman Notch-1/Fc Chimera, CF (R&D Systems Cat#3647-TK) (human) (UniProt P46531); assay: as above
[31] = target: Recombinant Human DLL4 (R&D Systems Cat#1506-D4/CF) (human) (UniProt Q9NR61); assay: ECL (MSD) multispot binding assay, antigen spotted on plate, Fab in solution
[32] = target: rHuman IGF-1 sR, (IGF-1 sR), CF (R&D Systems Cat#391-GR) (human) (UniProt P08069); assay: Multispot ECL (MSD), antigen spotted on plate, Fab 210 nM; blank spot 833
[33] = target: rHuman IGF-1 sR, (IGF-1 sR), CF (R&D Systems Cat#391-GR) (human) (UniProt P08069); assay: Multispot ECL (MSD), antigen spotted on plate, Fab 52.5 nM; blank spot 467
[34] = target: rHuman IGF-1 sR, (IGF-1 sR), CF (R&D Systems Cat#391-GR) (human) (UniProt P08069); assay: Multispot ECL (MSD), antigen spotted on plate, Fab […]; blank spot 376
[35] = target: rHuman IGF-1 sR, (IGF-1 sR), CF (R&D Systems Cat#391-GR) (human) (UniProt P08069); assay: Multispot ECL (MSD), antigen spotted on plate, Fab […]; blank spot 359
[36] = target: rHuman Notch-1/Fc Chimera, CF (R&D Systems Cat#3647-TK) (human) (UniProt P46531); assay: ECL (MSD) multispot binding assay, antigen spotted on plate, 20 nM Fab
[37] = target: rHuman Erythropoietin R/Fc Chimera, CF (R&D Systems Cat#963-ER) (human) (UniProt P19235); assay: ECL multispot (MSD) assay, antigen spotted on plate, 10 nM Fab
[38] = target: rHuman ErbB2/Fc Chimera, CF (R&D Systems Cat#1129-ER) (human) (UniProt P04626); assay: ECL multispot (MSD) binding assay; antigen spotted on plate, Fab in solution, Ru-labelled anti-kappa detection
[39] = target: rHuman Erythropoietin R/Fc Chimera, CF (R&D Systems Cat#963-ER) (human) (UniProt P19235); assay: as above
[40] = target: rHuman Notch-1/Fc Chimera, CF (R&D Systems Cat#3647-TK) (human) (UniProt P46531); assay: as above
[41] = target: rHuman CD44/Fc Chimera, CF (R&D Systems Cat#3660-CD) (human) (UniProt P16070); assay: as above
[42] = target: rHuman Notch-1/Fc Chimera, CF (R&D Systems Cat#3647-TK) (human) (UniProt P46531); assay: ECL Multispot (MSD) assay, antigen spotted on plate, 10 nM Fab

Fab VH3-23_IGHD3-10*01>3_IGHJ6*01 Y112Q & O12_IGKJ1*01
ECL signal/blank ratio [1]: 1.4 | ECL signal/blank ratio [2]: 1.2 | ECL signal/blank ratio [3]: 1.8 | ECL signal/blank ratio [4]: 3 | ECL signal/blank ratio [5]: 2.4 | ECL signal/blank ratio [6]: 1.7 | ECL signal/blank ratio [7]: 1.6 | ECL signal/blank ratio [8]: 1.4

Fab VH3-23_IGHD3-10*01>1′_IGHJ3*01 & O12_IGKJ1*01
ECL signal [9]: 1300 | ECL signal [10]: 759

Fab VH3-23_IGHD2-21*01>3_IGHJ6*01 H100E/S108P K65A & V2-13_IGLJ2*01
ECL signal/blank ratio (read-out not given) [11]: 7.1 | ECL signal/blank ratio (read-out not given) [12]: 3 | ECL signal/blank ratio (read-out not given) [13]: 1.4 | ECL signal/blank ratio (read-out not given) [14]: 1.7

Fab VH3-23_IGHD3-10*01>3_IGHJ6*01 & O12_IGKJ1*01
ECL signal [15]: 287 | ECL signal [16]: 287 | ECL signal [17]: 210 | ECL signal [18]: 218 | ECL signal [19]: 2700 | ECL signal [20]: 4360 | ECL signal [21]: 2510 | ECL signal [22]: 2580 | ECL signal [23]: 412 | ECL signal [24]: 677 | ECL signal [25]: 319 | ECL signal [26]: 660 | ECL signal [27]: 15900 | ECL signal [28]: 17300 | ECL signal [29]: 20600 | ECL signal [30]: 14400

Fab VH3-23_IGHD3-10*01>3_IGHJ6*01 R104A & O12_IGKJ1*01
ECL multispot value (looks like signal/blank ratio; not labelled) [31]: 2.7

Fab VH4-31_IGHD2-15*01_IGHJ2*01 & V1-4_IGLJ4*01
ECL signal at 210 nM Fab [32]: 1430 | ECL signal at 52.5 nM Fab [33]: 911 | ECL signal at 13.1 nM Fab [34]: 814 | ECL signal at 3.3 nM Fab [35]: 743

Fab VH3-23_IGHD2-21*01>3_IGHJ6*01 H100E/S108P/Y113G Y114H & V2-13_IGLJ2*01
ECL multispot value [36]: 3.3

Fab VH1-46_IGHD6-6*01_IGHJ1*01 S102A/S103P/S104F/H111F & L6_IGKJ1*01
ECL signal [37]: 438

Fab VH3-23_IGHD3-10*01>3_IGHJ6*01 Y115G & O12_IGKJ1*01
ECL multispot value (looks like signal/blank ratio; not labelled) [31]: 2.7

Fab VH1-46_IGHD6-6*01_IGHJ1*01 S102A/S103P/S104F/H111F F29A & L6_IGKJ1*01
ECL signal [38]: 1290 | ECL signal [39]: 1060 | ECL signal [40]: 6090 | ECL signal [41]: 978 | ECL signal [42]: 374

Fab VH3-23_IGHD2-21*01>3_IGHJ6*01 H100E/S108P/Y113G Y114E & V2-13_IGLJ2*01
ECL multispot value [36]: 3.3
